According to patent WO2012019024A2 (dated 2012):
Values belong to the molecule of their own block, whether it stands above or below them.

Assays:
human HER3 [1] = molecular target: T1, human HER3 (human, UniProt P21860 20-1342); test: cell-based or functional assay
human HER3 [2] = molecular target: T1, human HER3; test: Kd named as the concentration of the biotinylated reference antibody in the flow cytometry competition assay
human HER3 [3] = molecular target: T1, human HER3; test: flow cytometry competition on SKBR3 cells, antibody varied against 10 nM biotinylated HRG1β1 ligand
human HER3 [4] = molecular target: T1, human HER3; test: flow cytometry on SKBR3 cells (endogenous HER3), apparent Kd
[5] = molecular target: macaque HER3 extracellular domain on 300-19 cells (pSRa-chiHER3) (macaque; human); test: flow cytometry on 300-19 cells expressing maHER3 extracellular domain, apparent Kd
Sequence of macaque HER3 extracellular domain on 300-19 cells (pSRa-chiHER3) (macaque; human) (P21860 644-1342, form in doubt): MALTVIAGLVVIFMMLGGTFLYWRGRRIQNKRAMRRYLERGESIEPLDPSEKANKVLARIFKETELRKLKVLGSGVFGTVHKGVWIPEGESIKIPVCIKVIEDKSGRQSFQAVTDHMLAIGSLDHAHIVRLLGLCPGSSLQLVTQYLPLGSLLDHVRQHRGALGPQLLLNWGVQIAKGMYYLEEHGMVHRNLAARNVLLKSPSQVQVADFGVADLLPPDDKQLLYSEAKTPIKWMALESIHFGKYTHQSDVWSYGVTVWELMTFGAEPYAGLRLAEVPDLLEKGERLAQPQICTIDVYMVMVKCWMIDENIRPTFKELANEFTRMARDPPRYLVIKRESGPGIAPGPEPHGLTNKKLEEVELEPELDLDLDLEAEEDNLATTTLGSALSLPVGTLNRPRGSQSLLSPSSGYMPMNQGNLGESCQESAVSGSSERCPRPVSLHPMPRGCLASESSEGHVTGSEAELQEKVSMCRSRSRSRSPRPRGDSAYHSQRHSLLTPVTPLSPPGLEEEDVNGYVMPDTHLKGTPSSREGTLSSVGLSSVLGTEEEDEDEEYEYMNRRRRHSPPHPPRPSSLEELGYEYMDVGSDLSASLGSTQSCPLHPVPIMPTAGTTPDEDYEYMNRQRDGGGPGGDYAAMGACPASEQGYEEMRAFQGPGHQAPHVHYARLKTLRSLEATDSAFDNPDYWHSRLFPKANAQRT

human HER3 [6] = molecular target: T1, human HER3; test: flow cytometry on huHER3-overexpressing 300-19 cells, apparent Kd (EC50 of the binding curve)
human HER3 [7] = molecular target: T1, human HER3; test: flow cytometry on SKBR3 cells, apparent Kd
Target sequence in this assay (P21860 20-1342 limits assumed): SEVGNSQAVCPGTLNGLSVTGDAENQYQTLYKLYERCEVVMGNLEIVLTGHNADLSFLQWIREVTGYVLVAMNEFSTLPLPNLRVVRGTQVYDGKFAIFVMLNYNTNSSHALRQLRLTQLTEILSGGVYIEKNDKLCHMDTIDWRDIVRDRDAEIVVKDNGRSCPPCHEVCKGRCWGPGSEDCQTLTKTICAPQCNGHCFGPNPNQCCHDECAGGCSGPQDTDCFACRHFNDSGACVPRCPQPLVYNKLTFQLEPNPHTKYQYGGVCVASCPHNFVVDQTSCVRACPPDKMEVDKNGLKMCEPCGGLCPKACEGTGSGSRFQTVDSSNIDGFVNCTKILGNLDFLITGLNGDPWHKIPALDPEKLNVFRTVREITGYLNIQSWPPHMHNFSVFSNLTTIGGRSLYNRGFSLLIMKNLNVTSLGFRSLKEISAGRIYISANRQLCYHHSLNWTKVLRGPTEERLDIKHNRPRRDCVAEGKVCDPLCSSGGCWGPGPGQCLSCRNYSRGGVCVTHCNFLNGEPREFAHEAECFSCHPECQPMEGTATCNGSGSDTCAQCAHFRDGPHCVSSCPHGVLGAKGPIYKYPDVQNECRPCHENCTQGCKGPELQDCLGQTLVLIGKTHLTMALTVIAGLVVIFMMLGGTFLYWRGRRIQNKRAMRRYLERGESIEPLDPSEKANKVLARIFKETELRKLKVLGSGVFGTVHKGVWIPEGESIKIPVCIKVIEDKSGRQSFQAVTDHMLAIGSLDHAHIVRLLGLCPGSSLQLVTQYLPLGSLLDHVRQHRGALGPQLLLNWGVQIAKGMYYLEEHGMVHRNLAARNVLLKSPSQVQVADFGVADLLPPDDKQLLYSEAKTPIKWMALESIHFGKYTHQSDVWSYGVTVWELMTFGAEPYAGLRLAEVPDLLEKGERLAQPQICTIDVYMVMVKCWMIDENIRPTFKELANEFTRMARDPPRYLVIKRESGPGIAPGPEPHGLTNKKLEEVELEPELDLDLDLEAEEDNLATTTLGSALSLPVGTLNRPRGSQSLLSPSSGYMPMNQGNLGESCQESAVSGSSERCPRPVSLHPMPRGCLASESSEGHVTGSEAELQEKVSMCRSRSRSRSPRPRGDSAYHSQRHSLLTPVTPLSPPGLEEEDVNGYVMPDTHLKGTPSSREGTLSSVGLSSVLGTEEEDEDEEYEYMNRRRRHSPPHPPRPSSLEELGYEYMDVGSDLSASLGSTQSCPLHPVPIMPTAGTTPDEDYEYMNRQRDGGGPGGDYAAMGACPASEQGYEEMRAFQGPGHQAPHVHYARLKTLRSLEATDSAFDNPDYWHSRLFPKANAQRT

[8] = molecular target: macaque HER3 extracellular domain on 300-19 cells (pSRa-chiHER3) (macaque; human); test: cell-based or functional assay
[9] = molecular target: macaque HER3 extracellular domain on 300-19 cells (pSRa-chiHER3) (macaque; human); test: flow cytometry on maHER3-overexpressing 300-19 cells, apparent Kd
human HER3 [10] = molecular target: T1, human HER3; test: flow cytometry competition on SKBR3 cells, naked antibody varied, competitor biotinylated muHER3-8
human HER3 [11] = molecular target: T1, human HER3; test: flow cytometry on huHER3-expressing 300-19 cells, apparent Kd, comparison of murine and humanized antibody
human HER3 [12] = molecular target: T1, human HER3; test: flow cytometry on huHER3-expressing 300-19 cells
[13] = molecular target: T2, chL1-S1 chimeric human/murine HER-3 ECD Fc fusion (human; murine, UniProt P21860 20-632); test: ELISA on chL1-S1 Fc (Figure 30)
T2 construct: also called chLl-Sl; chimeric ECD comprising human L1-S1 domains and murine L2-S2 domains; not shown: murine IgG2A hinge, CH2, and CH3 region (pmuFc2ANL vector)
T2 chain: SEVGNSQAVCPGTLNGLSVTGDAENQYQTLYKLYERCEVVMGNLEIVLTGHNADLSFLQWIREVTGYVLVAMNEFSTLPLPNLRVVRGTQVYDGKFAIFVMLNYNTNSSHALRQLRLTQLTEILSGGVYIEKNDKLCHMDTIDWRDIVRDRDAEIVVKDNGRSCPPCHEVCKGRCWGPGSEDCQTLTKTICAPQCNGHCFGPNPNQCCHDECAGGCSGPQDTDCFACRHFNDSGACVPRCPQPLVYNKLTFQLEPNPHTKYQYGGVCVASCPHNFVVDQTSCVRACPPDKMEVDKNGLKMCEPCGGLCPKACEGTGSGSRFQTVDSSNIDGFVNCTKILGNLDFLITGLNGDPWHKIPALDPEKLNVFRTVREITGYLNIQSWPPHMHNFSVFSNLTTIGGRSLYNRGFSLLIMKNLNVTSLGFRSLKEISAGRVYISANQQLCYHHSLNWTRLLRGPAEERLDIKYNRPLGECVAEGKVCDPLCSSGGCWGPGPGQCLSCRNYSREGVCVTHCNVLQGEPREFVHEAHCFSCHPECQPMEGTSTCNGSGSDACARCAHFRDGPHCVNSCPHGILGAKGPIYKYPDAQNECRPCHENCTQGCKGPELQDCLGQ

[14] = molecular target: T3, human HER-3 ECD Fc protein (human; murine, UniProt P21860 20-632); test: ELISA on human HER-3 ECD Fc (Figure 28)
T3 construct: also called Fc fusion of human HER-3; not shown: murine IgG2A hinge, CH2, and CH3 region (pmuFc2ANL vector)

[15] = molecular target: T4, murine HER-3 ECD Fc fusion (murine, UniProt Q61526 20-632); test: ELISA on murine HER-3 ECD Fc (Figure 29)
T4 construct: 'similarly constructed' to the human fusion; also called murine HER-3-Fc; not shown: murine IgG2A hinge, CH2, and CH3 region (pmuFc2ANL vector)

human HER3 [16] = molecular target: T1, human HER3; test: flow cytometry on huHER3-expressing 300-19 cells (Figure 15)
human HER3 [17] = molecular target: T1, human HER3; test: flow cytometry competition on SKBR3 cells, competitor biotinylated muHER3-8

Molecule: chKTI-SMCC-DM1 conjugate (antibody)
in vitro cytotoxicity EC50 (WST-8 surviving fraction), huHER3-overexpressing 300-19 cells (human HER3 [1]): 53 nM

Molecule: chKTI-SPDB-DM4 conjugate (antibody)
in vitro cytotoxicity EC50 (WST-8 surviving fraction), huHER3-overexpressing 300-19 cells (human HER3 [1]): 4.4 nM

B1: muHER3-10 antibody (antibody, mouse IgG1, V domains shown)
VH: EVQLQQSGPELVKPGVSMKISCKASGYSFTDYTMNWVKQSHGKNLEWIGLINPYNDITAYNQKFKGKATLSVNKSSSTAYMELLSLTSEDSAVYYCARRGPRGAWFAYWGQGTLVTVSA
VL: NIVLTQSPASLAVSLGQRATISCRASTSVYNYGNSFMHWYQQMPGQPPKLLIYLASNLESGVPARFSGSGSRTDFTLTIDPVEADDAATYYCQQNSEDPWTFGGGTKLEIKR
notes: also called HER3-10 (murine)
HRG1β1-induced AKT phosphorylation (pAKT level, % of ligand-only control), whole cell ELISA, MCF7 cells, 10 µg/ml antibody (human HER3 [1]): < 50%
HRG1β1-induced HER3 phosphorylation (pHER3 level, % of ligand-only control), whole cell ELISA, MCF7 cells, 10 µg/ml antibody (human HER3 [1]): < 20%
Kd (human HER3 [4]): 0.052 nM
Kd [5]: 0.042 nM
Kd (human HER3 [6]): 0.068 nM

B6: huHER3-8v.1.00 antibody (antibody, V domains shown)
VH: QVQLQESGPGLVKPSQSLSLTCTVTGSSITSDYAWNWIRQHPGNKLEWMGFISYSGSTSYNPSLKSRISITRDTSKNQFFLHLSSVTAADTATYYCSRRLGRLYYFDYWGQGTLLTVSS
VL: EIVMTQSPATLSVTPGDRVSLSCRASQSINDYLHWYQQKPGQSPRLLIKFASHSISGIPDRFSGSGSGSDFTLTISSVEPEDVGVYYCQNGHSFPWTFGGGTKLEIKR
notes: Recombinant humanized antibody with human constant regions; also called huHER3-8 naked antibody
Kd (human HER3 [7]): 0.14 nM
Kd (human HER3 [11]): 0.12 nM
Kd [9]: 0.19 nM
fold increase of binding affinity against muHER3-8 (human HER3 [12]): ~2 fold
EC50 (human HER3 [10]): 0.24 nM
binding result [13]: binds

B8: huHER3-3-SMCC-DM1 conjugate (antibody, V domains shown)
VH: QVQLVQPGAEVVKPGASVKMSCKASGYTFTDYWIHWVKQRPGQGLEWIGAIDTDTYTSYNQKFQGKATLTVDESSSTAYMQLSSLTSEDSAVYYCARSLLRLLYFDYWGQGTTLTVSS
VL: EIVMTQSPATLSVTPGDRVTLSCRASQSITDYLHWYQQKPGQSPRLLIKFASQSISGIPDRFSGSGSGSDFTLSISSVEPEDVGVYYCQNGHSFPLTFGQGTKLELKR
modifications: SMCC-DM1 maytansinoid linked to the antibody, 3.5-4 DM1 molecules per antibody; attachment residues and chain not stated
in vitro cytotoxicity EC50 (WST-8 surviving fraction), huHER3-overexpressing 300-19 cells (human HER3 [1]): 0.19 nM

B9: huHER3-8v.1.01 antibody (antibody, V domains shown)
VH: QVQLQESGPGLVKPSQSLSLTCTVTGSSITSDYAWNWIRQHPGNKLEWMGFISYSGSTSYNPSLKSRISITRDTSKNQFFLHLSSVTAADTATYYCSRKLGRLYYFDYWGQGTLLTVSS
VL: EIVMTQSPATLSVTPGDRVSLSCRASQSINDYLHWYQQKPGQSPRLLIKFASHSISGIPDRFSGSGSGSDFTLTISSVEPEDVGVYYCQNGHSFPWTFGGGTKLEIKR
notes: Recombinant humanized antibody with human constant regions; murine lysine 95 of heavy chain CDR3 retained
binding result (human HER3 [17]): binds

B10: muHER3-3 antibody (antibody, mouse IgG1, kappa, V domains shown)
VH: QVQLQQPGAELVMPGASVKMSCKASGYTFTDYWIHWVKQRPGQGLEWIGAIDTDTYTSYNQQFKGKATLTVDESSSTAYMQLSSLTSEDSAVYYCARSLLRLLYFDYWGQGTTLTVSS
VL: DIVMTQSPATLSVTPGDRVSLSCRASQSITDYLHWYQQKSHESPRLLIKFASQSISGIPSRFSGSGSGSDFTLSINSVEPEDVGVYYCQNGHSFPLTFGAGTKLELKR
notes: also called HER3-3 (murine)
EC50 (human HER3 [3]): 0.32 nM
HRG1β1-induced AKT phosphorylation (pAKT level, % of ligand-only control), whole cell ELISA, MCF7 cells, 10 µg/ml antibody (human HER3 [1]): < 50%
HRG1β1-induced HER3 phosphorylation (pHER3 level, % of ligand-only control), whole cell ELISA, MCF7 cells, 10 µg/ml antibody (human HER3 [1]): < 20%
Kd (human HER3 [4]): 0.21 nM
Kd [5]: 0.14 nM
Kd (human HER3 [6]): 0.3 nM

Continued, in another order:

Kd (human HER3 [2]): 1 nM
EC50 (human HER3 [3]): 2.2 nM
Molecule: U3-Pharma/Amgen's U1-59 antibody

Kd (human HER3 [7]): 0.49 nM
Kd [9]: 0.29 nM
B2: huHER3-8-SMCC-DM1 conjugate (antibody, V domains shown)
VH: QVQLQESGPGLVKPSQSLSLTCTVTGSSITSDYAWNWIRQHPGNKLEWMGFISYSGSTSYNPSLKSRISITRDTSKNQFFLHLSSVTAADTATYYCSRRLGRLYYFDYWGQGTLLTVSS
VL: EIVMTQSPATLSVTPGDRVSLSCRASQSINDYLHWYQQKPGQSPRLLIKFASHSISGIPDRFSGSGSGSDFTLTISSVEPEDVGVYYCQNGHSFPWTFGGGTKLEIKR
modifications: SMCC-DM1 maytansinoid linked to the antibody, 3.5-4 DM1 molecules per antibody; attachment residues and chain not stated
notes: Immunoconjugate of huHER3-8 (v.1.00) with human constant regions; also called huHER3-8-SMCC-DMl
in vitro cytotoxicity EC50 (WST-8 surviving fraction), huHER3-overexpressing 300-19 cells (human HER3 [1]): 0.17 nM
in vitro cytotoxicity EC50 (WST-8 surviving fraction), maHER3-overexpressing 300-19 cells [8]: 0.059 nM

Kd (human HER3 [2]): 0.2 nM
EC50 (human HER3 [3]): 0.29 nM
HRG1β1-induced AKT phosphorylation (pAKT level, % of ligand-only control), whole cell ELISA, MCF7 cells, 10 µg/ml antibody (human HER3 [1]): < 50%
HRG1β1-induced HER3 phosphorylation (pHER3 level, % of ligand-only control), whole cell ELISA, MCF7 cells, 10 µg/ml antibody (human HER3 [1]): < 20%
HRG1β1-induced MCF7 cell proliferation (WST-8, % of ligand-only control), 10 µg/ml antibody (human HER3 [1]): 40%
Kd (human HER3 [4]): 0.31 nM
EC50 (human HER3 [10]): 0.76 nM
Kd [5]: 0.24 nM
Kd (human HER3 [6]): 0.23 nM
B3: muHER3-8 antibody (antibody, mouse IgG1, V domains shown)
VH: DVQLQESGPGLVTPSQSLSLTCTVTGSSITSDYAWNWIRQFPGNKLEWMGFISYSGSTSYNPSLKSRISITRDTSKNQFFLHLSSVTSEDTATYYCSRKLGRLYYFDYWGQGTTLTVSS
VL: DIVMTQSPATLSVTPGDRVSLSCRASQSINDYLHWYQQKSHESPRLLIKFASHSISGIPSRFSGSGSGSDFTLTINSVEPEDVGVYYCQNGHSFPWTFGGGTKLEIKR
notes: also called HER3-8 (murine)

Kd (human HER3 [7]): 0.29 nM
Kd [9]: 0.23 nM
B4: huHER3-8-SPDB-DM4 conjugate (antibody, V domains shown)
VH: QVQLQESGPGLVKPSQSLSLTCTVTGSSITSDYAWNWIRQHPGNKLEWMGFISYSGSTSYNPSLKSRISITRDTSKNQFFLHLSSVTAADTATYYCSRRLGRLYYFDYWGQGTLLTVSS
VL: EIVMTQSPATLSVTPGDRVSLSCRASQSINDYLHWYQQKPGQSPRLLIKFASHSISGIPDRFSGSGSGSDFTLTISSVEPEDVGVYYCQNGHSFPWTFGGGTKLEIKR
modifications: SPDB-DM4 maytansinoid linked to the antibody, 3.5-4 DM4 molecules per antibody; attachment residues and chain not stated
notes: Immunoconjugate of huHER3-8 (v.1.00) with human constant regions
in vitro cytotoxicity EC50 (WST-8 surviving fraction), huHER3-overexpressing 300-19 cells (human HER3 [1]): 0.18 nM
in vitro cytotoxicity EC50 (WST-8 surviving fraction), maHER3-overexpressing 300-19 cells [8]: 0.099 nM

Kd (human HER3 [7]): 0.27 nM
Kd [9]: 0.28 nM
B5: huHER3-8-PEG4-mal-DM1 conjugate (antibody, V domains shown)
VH: QVQLQESGPGLVKPSQSLSLTCTVTGSSITSDYAWNWIRQHPGNKLEWMGFISYSGSTSYNPSLKSRISITRDTSKNQFFLHLSSVTAADTATYYCSRRLGRLYYFDYWGQGTLLTVSS
VL: EIVMTQSPATLSVTPGDRVSLSCRASQSINDYLHWYQQKPGQSPRLLIKFASHSISGIPDRFSGSGSGSDFTLTISSVEPEDVGVYYCQNGHSFPWTFGGGTKLEIKR
modifications: PEG4-mal-DM1 maytansinoid linked to the antibody, 3.5-4 maytansinoid molecules per antibody; attachment residues and chain not stated
notes: Immunoconjugate of huHER3-8 (v.1.00) with human constant regions; also called huHER3-8-PEG-mal-DM1; huHER3-8-PEG4-Mal-DMl
in vitro cytotoxicity EC50 (WST-8 surviving fraction), maHER3-overexpressing 300-19 cells [8]: 0.045 nM

binding result [14]: binds
binding result [15]: binds
binding result (human HER3 [16]): binds
binding result [13]: binds
B7: huHER3-3 antibody (antibody, V domains shown)
VH: QVQLVQPGAEVVKPGASVKMSCKASGYTFTDYWIHWVKQRPGQGLEWIGAIDTDTYTSYNQKFQGKATLTVDESSSTAYMQLSSLTSEDSAVYYCARSLLRLLYFDYWGQGTTLTVSS
VL: EIVMTQSPATLSVTPGDRVTLSCRASQSITDYLHWYQQKPGQSPRLLIKFASQSISGIPDRFSGSGSGSDFTLSISSVEPEDVGVYYCQNGHSFPLTFGQGTKLELKR
notes: Recombinant humanized antibody with human constant regions (pAbGlNeo / pAbKZeo plasmids), expressed in HEK 293T; also called humanized (resurfaced) HER3-3
